The target in one assay is T1, P23H rhodopsin (Homo sapiens, UniProt P08100, P23H).
T1 construct: expressed in transfected cells
As to the kind of experiment: Cell model of aggregation-prone P23H rhodopsin. Type of assay: cell-based. Particulars: aggregation-prone mutant P23H rhodopsin. From the text: As shown, α crystallin prevents aggregation of the aggregation-prone mutant of rhodpsin, P23H rhodopsin.
This mutation is the cause of the major form of retinitis pigmentosa in humans.

The test system of a further assay is lysozyme. Description: Chaperone-like activity: suppression of chemically-induced lysozyme aggregation. The note with it: lysozyme with dithiothreitol at 37° C. Type of assay: biochemical. From the text:
The “Relative Absorbance (360 nm)” of lysozyme increases over time under assay conditions. The absorbance increase is an index of protein aggregation. A reduction in the slope of absorbance increase corresponds to inhibition of lysozyme aggregation.
Recombinant human αA- and αB-crystallins were modified by addition of putative transduction sequences at their N- or C-termini. These proteins were expressed in E. coli and isolated to apparent homogeneity using previously published methods (Cobb et al. 2000). Purified proteins were analyzed by size exclusion chromatography to determine size heterogeneity. CLA was assessed by measuring the ability of candidate proteins to suppress chemically-induced aggregation of substrate protein lysozyme in the presence of dithiothreitol at 37° C.

The subject of a further assay is human lens cells. Description: Cell penetration and retention of AlexaFluor labeled crystallin in human lens cells over 3 days. The format is cell-based. The note with it: 60 minutes exposure. The protocol:
αB crystallin, with or without fusion to the NTD peptide, was labeled with the small molecular weight fluorescent molecule AlexaFluor. It was then combined with tissue culture nutrient media and applied to a culture plate containing human lens cells. After 60 minutes, the culture media were removed, and replaced with culture media without crystallins. Entry and distribution of crystallins was measured over 3 days by observing fluorescence (green). Cell nuclei were stained with Hoechst dye (blue).

In assay [1] the test system is human lens epithelial cells (HLE B3). Description: Uptake of Alexa Fluor 488 labeled crystallins into human lens epithelial cells. Particulars: Alexa Fluor 488 label, equal amounts of protein. Type of assay: cell-based. As for the experimental part: Since in vitro properties of alpha crystallin were unaffected by the addition of the NTD peptide, the ability of the NTD tag to enhance uptake of client proteins into living cells was investigated. To monitor cell uptake, wild type and NTD tagged crystallins were labeled with Alexa Fluor 488, a small reporter molecule. Equal amounts of protein were added to separate tissue culture plates containing human lens epithelial cells (HLE B3) and analyzed for their uptake into cells. At various times after addition of the protein to the cell media, cells were fixed and analyzed by fluorescent microscopy for cellular uptake of the labeled proteins. […] (See FIG. 1 and FIG. 6).
Further, αA- and αB-crystallins with and without the NTD tag were fluorescently-labeled using the fluorescent reporter molecule Alexa Fluor 488, and were incubated with human lens epithelial cells (HLE B3) and human embryonic kidney cells (HEK293). Time-dependent uptake was measured by fluorescent microscopy. At various times after addition of the protein to the cell media, cells were fixed and analyzed by fluorescent microscopy for cellular uptake of the labeled proteins.

For “alpha crystallin: alpha crystallin with chaperone-like activity applied to cells; b52 and b54 name it αA crystallin”, the “fluorescence of P23H rhodopsin (prevention of aggregation)” value with P23H rhodopsin is listed as “prevented the loss of fluorescence”.

B1: TAT-αB crystallin: αB crystallin fused to the TAT cell-penetrating peptide (GRKKRRQRRRPQ) of human immunodeficiency virus (protein)
chain: GRKKRRQRRRPQDIAIHHPWIRRPFFPFHSPSRLFDQFFGEHLLESDLFPTSTSLSPFYLRPPSFLRAPSWFDTGLSEMRLEKDRFSVNLDVKHFSPEELKVKVLGDVIEVHGKHEERQDEHGFISREFHRKYRIPADVDPLTITSSLSSDGVLTVNGPRKQVSGPERTIPITREEKPAVTAAPKK
On to B1, for which the “chaperone-like activity (suppression of lysozyme aggregation, absorbance 360 nm)” value with lysozyme was “does not suppress lysozyme aggregation”.

B2: αB crystallin: recombinant human αB-crystallin (HSPB5) without transduction peptide, used as comparator (protein)
chain: MDIAIHHPWIRRPFFPFHSPSRLFDQFFGEHLLESDLFPTSTSLSPFYLRPPSFLRAPSWFDTGLSEMRLEKDRFSVNLDVKHFSPEELKVKVLGDVIEVHGKHEERQDEHGFISREFHRKYRIPADVDPLTITSSLSSDGVLTVNGPRKQVSGPERTIPITREEKPAVTAAPKK
As to B2, the “chaperone-like activity (suppression of lysozyme aggregation, absorbance 360 nm)” value in the assay on lysozyme is reported as “effectively suppress lysozyme aggregation”. Moreover, the intracellular crystallin fluorescence entry is “substantially lost” in the assay with human lens cells (after 48 hours) and “virtually undetectable” with human lens cells (after 72 hours). Besides, in assay [1], the “intracellular fluorescence (cellular uptake)” value is “comparatively little intracellular fluorescence”.

The values above are taken from patent US9701713B2, “Compositions and methods for introduction of macromolecules into cells” (The Regents of the University of Colorado, a body corporate, priority 2011, dated 2017).
